Assays:
[1] = target: RyR2-S2814D (CaMKII phosphomimetic), knock-in mouse (mouse (endogenous in ventricular myocytes)) (UniProt E9Q401); test: FRET or BRET
[2] = target: RyR2-S2814A (non-phosphorylatable), knock-in mouse (mouse (endogenous in ventricular myocytes)) (UniProt E9Q401); test: FRET or BRET

Substance	fold faster binding (wash-in) vs. S2814A myocytes [1] [fold]	Kd [2] [nM]	Kd [1] [nM]
fluorescent DPc10 peptide (F-DPc10; RyR2 residues 2460-2495) (from UniProt P30957 2460-2495)	2		
fluorescent calmodulin (F-CaM) (from UniProt P0DP23 1-149) (natural protein)		20	72
